Assay results: the Human Domainome abundance scans (Beltran et al. 2025)
± gives the uncertainty stated by the source.

B1: Zinc finger homeobox protein 3, residues 2244 to 2299; numbered along this chain, Q15911 (parent)
chain: SSRTRFTDYQLRVLQDFFDANAYPKDDEFEQLSNLLNLPTRVIVVWFQNARQKARK
B2: Probable E3 ubiquitin-protein ligase MID2, residues 191 to 235; numbered along this chain, Q9UJV3 (parent)
chain: RGITCLDHENEKVNMYCVSDDQLICALCKLVGRHRDHQVASLNDR

Variants of: B1
Assay: abundance fitness (aPCA) (normalised: wild type 0, dead -1); higher = more abundant; growth selection in yeast, the domain comes from the species named
Conditions: Homo sapiens

| Variant | abundance fitness |
| --- | --- |
| CSRTRFTDYQLRVLQDFFDANAYPKDDEFEQLSNLLNLPTRVIVVWFQNARQKARK [S1C] | 0.079 ± 0.21 |
| DSRTRFTDYQLRVLQDFFDANAYPKDDEFEQLSNLLNLPTRVIVVWFQNARQKARK [S1D] | 0.137 ± 0.34 |
| ISRTRFTDYQLRVLQDFFDANAYPKDDEFEQLSNLLNLPTRVIVVWFQNARQKARK [S1I] | 0.252 ± 0.3 |
| ASRTRFTDYQLRVLQDFFDANAYPKDDEFEQLSNLLNLPTRVIVVWFQNARQKARK [S1A] | -0.047 ± 0.15 |
| FSRTRFTDYQLRVLQDFFDANAYPKDDEFEQLSNLLNLPTRVIVVWFQNARQKARK [S1F] | -0.357 ± 0.41 |
| ESRTRFTDYQLRVLQDFFDANAYPKDDEFEQLSNLLNLPTRVIVVWFQNARQKARK [S1E] | 0.181 ± 0.42 |
| LSRTRFTDYQLRVLQDFFDANAYPKDDEFEQLSNLLNLPTRVIVVWFQNARQKARK [S1L] | -0.179 ± 0.16 |
| GSRTRFTDYQLRVLQDFFDANAYPKDDEFEQLSNLLNLPTRVIVVWFQNARQKARK [S1G] | 0.256 ± 0.15 |

Variants of: B2
Assay: as above
Conditions: Homo sapiens

| Variant | abundance fitness |
| --- | --- |
| RGITCLDHENEKVNMNCVSDDQLICALCKLVGRHRDHQVASLNDR [Y16N] | -0.251 ± 0.1 |
| RGITCLDHENEKVNMPCVSDDQLICALCKLVGRHRDHQVASLNDR [Y16P] | -0.065 ± 0.088 |
| RGITCLDHENEKVNMYCVSDDQLICALCKLVGRHRDHQVDSLNDR [A40D] | 0.043 ± 0.077 |
| RGITCLDHENEKVNMYLVSDDQLICALCKLVGRHRDHQVASLNDR [C17L] | -0.775 ± 0.13 |
| RGITCLDHENEKVNMYSVSDDQLICALCKLVGRHRDHQVASLNDR [C17S] | -0.157 ± 0.073 |
| RGITCLDHENEKVNMYCVSDDQLICALCKLVGRHRDHQVAMLNDR [S41M] | -0.222 ± 0.12 |
| RGITCLDHENEKVNMYCVSDDQLICALCKLVGRHRDHQVAILNDR [S41I] | -0.481 ± 0.16 |
| REITCLDHENEKVNMYCVSDDQLICALCKLVGRHRDHQVASLNDR [G2E] | 0.115 ± 0.063 |
| RAITCLDHENEKVNMYCVSDDQLICALCKLVGRHRDHQVASLNDR [G2A] | -0.135 ± 0.054 |
| RGITCLDHENEKVNMYCVSDDQLICALCKLVGRHRWHQVASLNDR [D36W] | -0.311 ± 0.079 |
| RGITCLIHENEKVNMYCVSDDQLICALCKLVGRHRDHQVASLNDR [D7I] | -0.015 ± 0.089 |
| RGITCLDHENEKVNMYCVSDDQLICALCKLWGRHRDHQVASLNDR [V31W] | -0.428 ± 0.084 |
| RGITCLDHENEKVNMYCVSDDQLICALCKLVGRHRDHQVASLHDR [N43H] | -0.016 ± 0.079 |
| RGITCLDHENEKVNMYCVSDDQLICALCKLVGRHRDHQVASLADR [N43A] | 0.1 ± 0.059 |
| RGITCLDHENEKVNMYCVSDDQLICALCKLVGRHRDHQVASLTDR [N43T] | 0.008 ± 0.087 |
| RGITCLDHENEKVNMYCVSDDQLICALCKLVGRYRDHQVASLNDR [H34Y] | -0.634 ± 0.29 |
| RGITCLDHENEKVNMYCVSDDQLICHLCKLVGRHRDHQVASLNDR [A26H] | -0.169 ± 0.36 |
| RGITCLDHENEKVNMYCVSDDQLICYLCKLVGRHRDHQVASLNDR [A26Y] | -0.092 ± 0.16 |
| RGITCLDHENEKVNMYCVSWDQLICALCKLVGRHRDHQVASLNDR [D20W] | -0.809 ± 0.067 |
| RGITCLDHENEKVNMYCVSDDQLICALCKLVRRHRDHQVASLNDR [G32R] | -0.537 ± 0.092 |
| RGITCLDHENEKVNMYCVSDDQLICALCKLVCRHRDHQVASLNDR [G32C] | -0.589 ± 0.12 |
| RGITCLDHENEKVMMYCVSDDQLICALCKLVGRHRDHQVASLNDR [N14M] | -0.487 ± 0.19 |
| RGITCLDHENEKVNMYCNSDDQLICALCKLVGRHRDHQVASLNDR [V18N] | -0.125 ± 0.083 |
| RGITCLDHENEKVNMYCVSDDQLICALCKLVGRHLDHQVASLNDR [R35L] | -0.321 ± 0.068 |

| Variant | abundance fitness |
| --- | --- |
| RGITCLDHENEKVNMYCVSDDQLICALCKLVGRHEDHQVASLNDR [R35E] | 0.09 ± 0.092 |
| RGITCLDHENEKVNMYCVSDDQLICALCKLVGRHRDHQSASLNDR [V39S] | 0.082 ± 0.11 |
| RGITCLDHENEKVNMYCVSDDQLICALYKLVGRHRDHQVASLNDR [C28Y] | -1.14 ± 0.3 |
| RGITCLDHENEKVNMYCVSDDQLICALGKLVGRHRDHQVASLNDR [C28G] | -0.58 ± 0.062 |
| RGITCLDHENEKVNAYCVSDDQLICALCKLVGRHRDHQVASLNDR [M15A] | 0.063 ± 0.056 |
| RGITCLDHENEKVNPYCVSDDQLICALCKLVGRHRDHQVASLNDR [M15P] | -0.251 ± 0.07 |
| RGITCLDHEVEKVNMYCVSDDQLICALCKLVGRHRDHQVASLNDR [N10V] | -0.416 ± 0.06 |
| RGITCLDHENRKVNMYCVSDDQLICALCKLVGRHRDHQVASLNDR [E11R] | -0.171 ± 0.05 |
| RGITCLDHLNEKVNMYCVSDDQLICALCKLVGRHRDHQVASLNDR [E9L] | 0.032 ± 0.051 |
| RGITCLDHENEKVNMYCVSDDQLICALCKLVGRHRDHFVASLNDR [Q38F] | -0.69 ± 0.18 |
| NGITCLDHENEKVNMYCVSDDQLICALCKLVGRHRDHQVASLNDR [R1N] | -0.017 ± 0.15 |
| FGITCLDHENEKVNMYCVSDDQLICALCKLVGRHRDHQVASLNDR [R1F] | 0.127 ± 0.3 |
| RGITCLDHENEKVNMYCVSDDQQICALCKLVGRHRDHQVASLNDR [L23Q] | 0.099 ± 0.089 |
| RGITCLDHENEKVNMYCVSDDQLICALCVLVGRHRDHQVASLNDR [K29V] | -0.149 ± 0.089 |
| RGITCFDHENEKVNMYCVSDDQLICALCKLVGRHRDHQVASLNDR [L6F] | -0.028 ± 0.07 |
| RGITCRDHENEKVNMYCVSDDQLICALCKLVGRHRDHQVASLNDR [L6R] | 0.103 ± 0.042 |
| RGITCLDHENEKVNMYCVSDDQLICALCKLVGRHRDDQVASLNDR [H37D] | -0.274 ± 0.09 |
| RGITCLDHENEKVNMYCVSDDQLICALCKLVGSHRDHQVASLNDR [R33S] | -0.112 ± 0.081 |
| RGITCLDHENEKVNMYCVSDDQLICALCKLVGPHRDHQVASLNDR [R33P] | 0.038 ± 0.12 |
| RGITCLDHENEKVNMYCVSDDQLICAVCKLVGRHRDHQVASLNDR [L27V] | 0.039 ± 0.057 |
| RGITCLDHENEKVNMYCVSDDQLPCALCKLVGRHRDHQVASLNDR [I24P] | 0.196 ± 0.21 |
| RGITCLDHENEKVNMYCVSDDQLSCALCKLVGRHRDHQVASLNDR [I24S] | -0.179 ± 0.12 |
| RGGTCLDHENEKVNMYCVSDDQLICALCKLVGRHRDHQVASLNDR [I3G] | 0.043 ± 0.042 |
